Target: the molecule itself
Experiment: SEC

B1: SARS-CoV soluble S ectodomain (Se) (domain or fragment)
chain: not shown
With B1 the “stoichiometry N” value was 3.

Reference: article PMC7092807 (Biochemical and Biophysical Research Communications, 2004)
